Experimental data published in article PMC9927489 (Microbiology Spectrum, 2023).
pKd: −log10 of the molar value. Read-outs that look alike come from different tables or passages of the source.

What was measured:
[1] = molecular target: Mycobacterium tuberculosis dUTPase mutant mDut H145F, His-tagged (Mycobacterium tuberculosis (strain H37Rv)) (UniProt P9WNS5); test: BLI; […] (218.7 nM) […]; 28°C; 1:1 kinetic model
[2] = molecular target: Mycobacterium tuberculosis dUTPase mutant mDut H145F, His-tagged (Mycobacterium tuberculosis (strain H37Rv)) (UniProt P9WNS5); test: BLI; […] (218.7 nM) […]; 28°C; 1:1 kinetic model; remark: listed apart in the source

Work on “Stl^N-ter (SaPIbov1 Stl, N-terminal DNA-binding domain and middle domain, residues 1 to 156) (domain or fragment)” yielded a pKd [1] of 7.90, a koff [1] of 0.00483 s⁻¹ and a kon [1] of 388000 M⁻¹ s⁻¹. For the same substance, the pKd [2] was 7.90.
